Measured values: US20230372448A1, “THERAPEUTIC USE OF LONG-ACTING CONJUGATE OF TRIPLE AGONIST ACTING ON ALL OF GLUCAGON, GLP-1 AND GIP RECEPTORS AGAINST MULTIPLE SCLEROSIS” (HANMI PHARM. CO. ,LTD., priority 2020, published 2023)
Positions of bridges follow the written chain, without caps; N, C: chain ends. Non-standard residues stand in square brackets, D forms with d. No end group written: not given here. *: point of attachment. Acetyl(2-(4-imidazolyl)) = O=C(Cc1c[nH]cn1)*; Aib = CC(C)(N)C(=O)O

What was measured:
[1] = system: pyridoxine-induced peripheral neuropathy in non-diabetic rodents; details: Exp Neurol. 2007; cited from earlier work
[2] = system: relapsing/remitting multiple sclerosis mouse model; details: Mol Neurobiol. 2018, cited from earlier work
[3] = target: human GLP-1 receptor (human, UniProt P43220 24-463); assay: cell-based or functional assay
[4] = target: T1, human GIP receptor (human, UniProt P48546 22-466); assay: cell-based or functional assay
T1 sequence (looked up): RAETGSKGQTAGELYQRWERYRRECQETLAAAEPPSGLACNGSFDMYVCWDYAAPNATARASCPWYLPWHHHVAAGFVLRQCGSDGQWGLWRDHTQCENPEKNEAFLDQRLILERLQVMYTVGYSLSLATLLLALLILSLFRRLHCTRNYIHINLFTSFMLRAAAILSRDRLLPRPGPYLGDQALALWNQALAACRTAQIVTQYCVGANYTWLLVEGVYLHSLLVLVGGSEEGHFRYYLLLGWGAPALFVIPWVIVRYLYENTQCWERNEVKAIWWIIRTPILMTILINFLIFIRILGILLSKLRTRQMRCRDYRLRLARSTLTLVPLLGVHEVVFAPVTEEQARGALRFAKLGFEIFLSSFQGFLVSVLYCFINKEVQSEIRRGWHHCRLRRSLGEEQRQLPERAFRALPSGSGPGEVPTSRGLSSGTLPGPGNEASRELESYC

[5] = target: human GCG receptor (human, UniProt P47871 26-477); assay: cell-based or functional assay
human GCG receptor, sequence (P47871 26-477): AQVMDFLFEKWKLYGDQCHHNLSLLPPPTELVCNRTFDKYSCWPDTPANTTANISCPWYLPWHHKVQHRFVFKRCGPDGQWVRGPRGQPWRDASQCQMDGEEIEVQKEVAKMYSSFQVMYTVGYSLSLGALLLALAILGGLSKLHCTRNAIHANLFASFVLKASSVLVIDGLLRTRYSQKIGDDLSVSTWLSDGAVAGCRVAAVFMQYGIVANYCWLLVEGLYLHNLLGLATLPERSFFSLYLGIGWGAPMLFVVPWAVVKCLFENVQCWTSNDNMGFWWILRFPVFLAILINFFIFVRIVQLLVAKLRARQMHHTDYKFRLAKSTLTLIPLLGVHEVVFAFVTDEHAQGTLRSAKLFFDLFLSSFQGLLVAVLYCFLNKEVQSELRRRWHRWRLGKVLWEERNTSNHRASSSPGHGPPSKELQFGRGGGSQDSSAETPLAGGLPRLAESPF

For “glucagon-like peptide-1 (HAEGTFTSDVSSYLEGQAAKEFIAWLVKGR; ends and bridges not checked; UniProt P01275 98-127, looked up) [GLP-1, a typical incretin hormone]”, the “protection against pyridoxine-induced functional and morphological defects” value [1] is listed as “partially protected”.

For exendin-4, the “levels of inflammatory cytokines that increase during demyelination” value [2] is listed as “reduced the levels of inflammatory cytokines”, the “symptoms of multiple sclerosis” value ([2]; effect similar to that of fingolimod) is listed as “symptom alleviating effect” and the “protection against pyridoxine-induced functional and morphological defects” value [1] is listed as “partially protected”.

B1: triple agonist of SEQ ID NO: 20 (peptide)
peptide: {Acetyl(2-(4-imidazolyl))}-GQGTFTSDLSIQYEEEAQQDFVEWLKDTGPSSGAPPPSHG
modifications: not fully specified; also: ring from underlined residues, positions not shown
In the case of B1, the “In vitro activity (%) compared with native peptide: vs GLP-1” value (from here on “In vitro activity (%) … vs GLP-1”) [3] is reported as < 0.1%, the “In vitro activity (%) compared with native peptide: vs GIP” value (shortened to “In vitro activity (%) … vs GIP”) [4] is reported as < 0.1% and the “In vitro activity (%) compared with native peptide: vs Glucagon” value (from here on “In vitro activity (%) … vs Glucagon”) [5] is reported as < 0.1%.

B2: triple agonist of SEQ ID NO: 25 (peptide)
peptide: H[Aib]QGTFTSDCSKYLDERAAQDFVQWLLDGGPSSGAPPPS
modifications: not fully specified
With B2 the “In vitro activity (%) … vs GLP-1” value [3] was 82.6%, the “In vitro activity (%) … vs GIP” value [4] was < 0.1% and the “In vitro activity (%) … vs Glucagon” value [5] was 0.1%.

B3: triple agonist of SEQ ID NO: 21 (peptide)
peptide: Y[Aib]QGTFTSDYSKYLDECRAKEFVQWLLDHHPSSGQPPPS
modifications: bridge 16-20; not fully specified
For B3, the “In vitro activity (%) … vs GLP-1” value [3] was 17.8%, the “In vitro activity (%) … vs GIP” value [4] was 22.7% and the “In vitro activity (%) … vs Glucagon” value [5] was 267%.

B4: triple agonist of SEQ ID NO: 31 (peptide)
peptide: H[Aib]QGTFTSDYSKYLDEKACKEFVQWLLAQ
modifications: bridge 16-20; not fully specified
With B4 the “In vitro activity (%) … vs GLP-1” value [3] was 135%, the “In vitro activity (%) … vs GIP” value [4] was 2.4% and the “In vitro activity (%) … vs Glucagon” value [5] was 2.2%.

B5: triple agonist of SEQ ID NO: 22 (peptide)
peptide: Y[Aib]QGTFTSDYSKCLDEKRAKEFVQWLLDHHPSSGQPPPS
modifications: bridge 16-20; not fully specified
With B5 the “In vitro activity (%) … vs GLP-1” value [3] was 20.1%, the “In vitro activity (%) … vs GIP” value [4] was 59.7% and the “In vitro activity (%) … vs Glucagon” value [5] was 140%.

B6: triple agonist of SEQ ID NO: 29 (peptide)
peptide: H[Aib]QGTFTSDYSKYLDEKAAKEFVQWLLNTC
modifications: bridge 16-20; not fully specified
In the case of B6, the “In vitro activity (%) … vs GLP-1” value [3] is reported as 38.5%, the “In vitro activity (%) … vs GIP” value [4] is reported as < 0.1% and the “In vitro activity (%) … vs Glucagon” value [5] is reported as 6%.

B7: triple agonist of SEQ ID NO: 18 (peptide)
peptide: {Acetyl(2-(4-imidazolyl))}-GQGTFTSDLSKQMDSERAREFIEWLKNTGPSSGAPPPSHG
modifications: not fully specified; also: ring from underlined residues, positions not shown
In the case of B7, the “In vitro activity (%) … vs GLP-1” value [3] is reported as < 0.1%, the “In vitro activity (%) … vs GIP” value [4] is reported as < 0.1% and the “In vitro activity (%) … vs Glucagon” value [5] is reported as < 0.1%.

B8: triple agonist of SEQ ID NO: 19 (peptide)
peptide: {Acetyl(2-(4-imidazolyl))}-GQGTFTSDLSIQYDSEHQRDFIEWLKDTGPSSGAPPPSHG
modifications: not fully specified; also: ring from underlined residues, positions not shown
For B8, the “In vitro activity (%) … vs GLP-1” value [3] was < 0.1%, the “In vitro activity (%) … vs GIP” value [4] was < 0.1% and the “In vitro activity (%) … vs Glucagon” value [5] was < 0.1%.

B9: triple agonist of SEQ ID NO: 28 (peptide)
peptide: H[Aib]QGTFTSDYSKYLDEKRAQEFVCWLLAQKGKKNDWKHNIT
modifications: not fully specified
For B9, the “In vitro activity (%) … vs GLP-1” value [3] was 17.2%, the “In vitro activity (%) … vs GIP” value [4] was < 0.1% and the “In vitro activity (%) … vs Glucagon” value [5] was 1.6%.

B10: triple agonist of SEQ ID NO: 30 (peptide)
peptide: H[Aib]QGTFTSDYSKYLDEKAQKEFVQWLLDTC
modifications: bridge 16-20; not fully specified
For B10, the “In vitro activity (%) … vs GLP-1” value [3] was 142%, the “In vitro activity (%) … vs GIP” value [4] was 0.8% and the “In vitro activity (%) … vs Glucagon” value [5] was 0.7%.

B11: triple agonist of SEQ ID NO: 3 (peptide)
peptide: H[Aib]QGTFTSDVSSYLLGQAAKQFIAWLVKGGGPSSGAPPPSC
modifications: not fully specified
With B11 the “In vitro activity (%) … vs GLP-1” value [3] was 1.8%, the “In vitro activity (%) … vs GIP” value [4] was < 0.1% and the “In vitro activity (%) … vs Glucagon” value [5] was < 0.1%.

B12: triple agonist of SEQ ID NO: 27 (peptide)
peptide: H[Aib]QGTFTSDYSKYLDERACQDFVQWLLDQGGPSSGAPPPS
modifications: not fully specified
With B12 the “In vitro activity (%) … vs GLP-1” value [3] was 83.1%, the “In vitro activity (%) … vs GIP” value [4] was 0.9% and the “In vitro activity (%) … vs Glucagon” value [5] was 0.8%.

B13: triple agonist of SEQ ID NO: 26 (peptide)
peptide: H[Aib]QGTFTSDCSKYLDSRAAQDFVQWLLDGGPSSGAPPPS
modifications: not fully specified
With B13 the “In vitro activity (%) … vs GLP-1” value [3] was 64.5%, the “In vitro activity (%) … vs GIP” value [4] was < 0.1% and the “In vitro activity (%) … vs Glucagon” value [5] was 0.2%.

B14: triple agonist of SEQ ID NO: 32 (peptide)
peptide: H[Aib]QGTFTSDYSKYLDEKACKDFVQWLLDGGPSSGAPPPS
modifications: bridge 16-20; not fully specified
With B14 the “In vitro activity (%) … vs GLP-1” value [3] was 151%, the “In vitro activity (%) … vs GIP” value [4] was 8.8% and the “In vitro activity (%) … vs Glucagon” value [5] was 1.7%.

B15: triple agonist of SEQ ID NO: 24 (peptide)
peptide: Y[Aib]QGTFTSDYSKYLDECRAKEFVQWLKNGGPSSGAPPPS
modifications: bridge 16-20
For B15, the “In vitro activity (%) … vs GLP-1” value [3] was 41.2%, the “In vitro activity (%) … vs GIP” value [4] was < 0.1% and the “In vitro activity (%) … vs Glucagon” value [5] was 9.3%.

B16: triple agonist of SEQ ID NO: 17 (peptide)
peptide: {Acetyl(2-(4-imidazolyl))}-GQGTFTSDLSKQMDEERAREFIEWLLAQKPSSGAPPPSHG
modifications: not fully specified; also: ring from underlined residues, positions not shown
In the case of B16, the “In vitro activity (%) … vs GLP-1” value [3] is reported as 0.2%, the “In vitro activity (%) … vs GIP” value [4] is reported as < 0.1% and the “In vitro activity (%) … vs Glucagon” value [5] is reported as < 0.1%.

B17: triple agonist of SEQ ID NO: 23 (peptide)
peptide: Y[Aib]QGTFTSDYSKYLDECRAKEFVQWLLAQKGKKNDWKHNIT
modifications: bridge 16-20; not fully specified
For B17, the “In vitro activity (%) … vs GLP-1” value [3] was 4.01%, the “In vitro activity (%) … vs GIP” value [4] was < 0.1% and the “In vitro activity (%) … vs Glucagon” value [5] was 9.3%.
